1 molecule from paper PMC2713827, “Characterization of a Lamellocyte Transcriptional Enhancer Located within the misshapen Gene of Drosophila melanogaster” can be followed below.

The target in this series is T1, dFos DNA-binding domain;dJun DNA-binding domain (Drosophila melanogaster;Drosophila …, UniProt P21525;P18289 418-481;212-275, |).
T1 sequence 1: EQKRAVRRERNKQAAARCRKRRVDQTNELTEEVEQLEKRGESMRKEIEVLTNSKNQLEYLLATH
T1 sequence 2: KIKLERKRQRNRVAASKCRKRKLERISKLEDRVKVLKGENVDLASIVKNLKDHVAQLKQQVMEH
Put plainly: EMSA; 10 mM Tris-HCl pH 8.0, 10 mM DTT, 2.5 mM MgCl2, 10% glycerol, poly(dI-dC), BSA, 100 ng dJun and dFos, 1,000 cpm 32P probe; temperature not stated. The conditions noted are these: protein: recombinant;recombinant; tags: 6xHis;6xHis; copies: 1;1; label: 32P. For orientation: A gel shift assay detects complexes by their altered migration in electrophoresis.

B1: hMTII wt AP-1 probe (dsDNA)
DNA 1: GAGCCGCAAGTGACTCAGCGCGGGGCGTGTGCAG
DNA 2: CTGCACACGCCCCGCGCTGAGTCACTTGCGGCTC
For B1, the binding result is “binds”.
